Results taken from the Human Domainome abundance scans (Beltran et al. 2025).

B1: Protein C-ets-1, residues 55 to 135; numbered along this chain, P14921 (parent)
chain: GFTKEQQRLGIPKDPRQWTETHVRDWVMWAVNEFSLKGVDFQKFCMNGAALCALGKDCFLELAPDFVGDILWEHLEILQKE
B2: Transcription factor SOX-11, residues 50 to 117; numbered along this chain, P35716 (parent)
chain: KRPMNAFMVWSKIERRKIMEQSPDMHNAEISKRLGKRWKMLKDSEKIPFIREAERLRLKHMADYPDYK

Variants of: B1
Assay: abundance fitness (aPCA) (normalised: wild type 0, dead -1); higher = more abundant; growth selection in yeast, the domain comes from the species named
Details: Homo sapiens

Abundance fitness: each site, then its substitutions
I77: M -0.009, D -0.033, Y -0.043, V 0.029, G 0.027, W -0.033, H 0.076, E -0.031, Q -0.029, R -0.025, P -0.346, A 0.008, L 0.053, N 0.17, F -0.013, T 0.01, S 0.065, K 0.052, C -0.021
Q79: H -0.178
E76: N 0.057, M 0.04, V -0.108, Q -0.043, W -0.109, K -0.053, F -0.273, G -0.036, T -0.14, S -0.021, P -0.205, D -0.015, I -0.267, Y 0.029, R -0.072, H -0.085, C -0.092, A -0.043, L -0.094
L78: D -0.486, V -0.097, W -0.244, H -0.553, Q -0.199, N -0.775, M -0.116, A -0.299, R -0.583, K -0.649, G -0.566, T -0.289, P -0.513, I -0.098, S -0.508, F -0.39, E -0.5, Y -0.463, C -0.16
E81: D -0.003
K80: N 0.029

Variants of: B2
Assay: as above
Details: Homo sapiens

Abundance fitness: each site, then its substitutions
A6: F -0.987, N -0.976, Q -1.05, Y -0.827, L -0.666, T -0.767, H -0.553, R -0.776, W -1.29, S -0.531, C -0.634, D -0.751, G -0.03, P -0.524, I -0.934, E -0.338, M -0.831, V -0.629
I13: N -0.372, S -0.406, E -0.077, K -0.717, H -0.153, R -0.446, C -0.407, M -0.106, G -0.206, L -0.237, V -0.128, Q -0.06, A -0.135, F -0.263, T -0.164, P -0.646, W -0.684
E14: N -0.338, K -0.953, L -1.05, I -0.722, T -1.16, V -0.895, M -0.352, A -0.615, D -0.861, Q -0.247, P -0.739, Y -0.696, F -0.645, C -0.533, G -0.771, S -0.488, H -0.577, W -0.734
M4: Q -0.248, R -0.874, G -0.28, S -0.334, D 0.059, F -0.186, Y -0.256, C -0.787, L -0.188, V 0.005, H -0.423, W -0.251, K -0.539, N -0.292, I 0.158, E -0.004, T -0.145
R15: A -0.217, F -0.601, N -0.527, T -0.073, K -0.151, E 0.101, C -0.384, P -1.1, Y -0.081, M -0.142, D -1.11, S -0.154, I -0.267, L -0.445, G -0.397, Q -0.108, V -0.397
K12: H -0.006, C -0.131, Q 0.007, I -0.099, W -0.89, N 0.014, T -0.119, P -0.746, A 0.175, V 0.012, Y -0.448, M -0.043, L -0.016, G -0.2, E 0.359, F -0.232, S 0.074
R2: E -0.165, I 0.113, W -0.97, D 0.146, F 0.091, Q 0.037, K -0.041, M 0.158, G 0.03, A -0.178, C 0.041, V 0.118, P -0.011, T 0.282, S 0.064, L 0.037, Y 0.272, N 0.166, H 0.086
R16: P -0.089, I 0.002, E 0.082, M -0.667, F -0.319, H -0.001, Y -0.372, D -0.036, A 0.218, G -0.105, T -0.212, L -0.015, S -0.134, Q 0.199, V 0, W -0.956
K17: G -0.756, H -0.47, A -0.484, C -0.527, F -0.531
S11: C -0.4, P -0.599, I -1.19, L -0.857, G -0.283, H -1.37, N -0.399, R -0.767, F -0.471, T -0.602, V -0.597, Y -0.267, D -1.11
V9: T -0.777, P -0.891, N -0.734, G -0.687, W -0.411, L 0.177, H -0.402, F -0.63, Y -0.558, C -0.448, I 0.037, A -0.644, Q -0.894, D -0.671, R -0.926, S -0.847, M -0.61
P3: S 0.097, N 0.199, V -0.294, K -0.044, E 0.073, L -0.118, M -0.704, F -0.292, T -0.083, H -0.085, A -0.544, R -0.407, C -0.442, D 0.525, I -0.279, Q 0.119
F7: P -0.967, Q -0.476, N -0.795, V -1.03, H -0.879, A -0.75, R -0.478, L -0.958, E -0.689, G -0.765, D -0.848, C -0.534, T -0.839, I -0.795, W -0.018, K -0.887, Y -0.203
K1: C -0.056, T 0.032, S -0.026, Y 0.032, G 0.103, I -0.048, D 0.21, W 0.006, F 0.113, N 0.077, M -0.421, L -0.137, E 0.258
N5: P -0.544, L -0.65, Q -0.831, V -0.491, E -0.172, A -0.474, R -0.852, S 0.104, F -0.712, I -0.601, C -0.321, W -0.438, D 0.147, G -0.433, M -0.724, H -0.621, K -0.956, T 0.149, Y -0.524
W10: Q -1.09, S -0.913, H -0.783, N -0.594, I -0.961, F -0.253, Y -0.375, K -0.627, T -0.576, L -0.819, G -0.797, C -1.01, D -0.781, M -0.345, V -0.872, P -0.589, A -0.543
M8: Q 0.324, F -0.14, N -0.111, T 0.165, C -0.168, G -0.079, D 0.456, Y -0.089, H -0.033, P -0.609, L -0.039, I -0.117, E 0.299, V -0.131, W -0.446, K -0.394, R -0.239, A 0.101
